According to patent US20210355194A1 (TWIST BIOSCIENCE, published 2021):

B1: variant 5-59 (Fc fusion)
VHH: EVQLVESGGGLVQPGGSLRLSCAASGLTFSLYRMCWFRQAPGKEREEVSCISNIDGSTYYADSVKGRFTISADNSKNTAYLQMNSLKPEDTAVYYCAADLLGDSDYEPSSGFGWGQGTLVTVSS
B2: variant 6-1 (Fc fusion)
VHH: EVQLVESGGGLVQPGGSLRLSCAASGRTFGNYNMGWFRQAPGKEREFVATINSLGGTSYADSVKGRFTISADNSKNTAYLQMNSLKPEDTAVYYCARVDYYMDVWGQGTLVTVSS
B3: variant 5-26 (Fc fusion)
VHH: EVQLVESGGGLVQPGGSLRLSCAASGRTISSYIMGWFRQAPGKERELVARIYTGGDTIYADSVKGRFTISADNSKNTAYLQMNSLKPEDTAVYYCAARTSYNGRYDYIDDYSWGQGTLVTVSS
B4: variant 6-3 (Fc fusion)
VHH: EVQLVESGGGLVQPGGSLRLSCAASGFTFSPSWMGWFRQAPGKEREFVATINEYGGRNYADSVKGRFTISADNSKNTAYLQMNSLKPEDTAVYYCARVDRDFDYWGQGTLVTVSS
notes: VHH-Fc
B5: variant 6-30 (Fc fusion)
VHH: EVQLVESGGGLVQPGGSLRLSCAASGFAFGDSWMGWFRQAPGKEREFVATINWSGVTAYADSVKGRFTISADNSKNTAYLQMNSLKPEDTAVYYCARADGYFDYWGQGTLVTVSS
B6: variant 6-77 (Fc fusion)
VHH: EVQLVESGGGLVQPGGSLRLSCAASGFTFDRSWMGWFRQAPGKEREFVAAVTEGGTTSYADSVKGRFTISADNSKNTAYLQMNSLKPEDTAVYYCARADYDFDYWGQGTLVTVSS
B7: variant 5-52 (Fc fusion)
VHH: EVQLVESGGGLVQPGGSLRLSCAASGEKFSDHWMGWFRQAPGKEREFVATITFSGARTAYADSVKGRFTISADNSKNTAYLQMNSLKPEDTAVYYCAALIKPSSTDRIFEEWGQGTLVTVSS
B8: variant 5-50 (Fc fusion)
VHH: EVQLVESGGGLVQPGGSLRLSCAASGFSLDYYGMGWFRQAPGKEREFVAAITSGGTPHYADSVKGRFTISADNSKNTAYLQMNSLKPEDTAVYYCASAYNPGIGYDWGQGTLVTVSS
B9: variant 5-65 (Fc fusion)
VHH: EVQLVESGGGLVQPGGSLRLSCAASGNIDRLYAMGWFRQAPGKEREGVAAIDSDGSTDYADSVKGRFTISADNSKNTAYLQMNSLKPEDTAVYYCAALIDYGLGFPIEWGQGTLVTVSS
B10: variant 6-2 (Fc fusion)
VHH: EVQLVESGGGLVQPGGSLRLSCAASGFTMSSSWMGWFRQAPGKEREFVTVISGVGTSYADSVKGRFTISADNSKNTAYLQMNSLKPEDTAVYYCARGPDSSGYGFDYWGQGTLVTVSS
B11: variant 5-55 (Fc fusion)
VHH: EVQLVESGGGLVQPGGSLRLSCAASGIDVNRNAMGWFRQAPGKEREFVAAITWSGGWRYYADSVKGRFTISADNSKNTAYLQMNSLKPEDTAVYYCATTFGDAGIPDQYDFGWGQGTLVTVSS
B12: variant 5-28 (Fc fusion)
VHH: EVQLVESGGGLVQPGGSLRLSCAASGGTFSVFAMGWFRQVPGKERELVAEITAGGSTYYADSVKGRFTISADNSKNTAYLQMNSLKPEDTAVYYCAVDGPFGWGQGTLVTVSS
B13: variant 5-17 (Fc fusion)
VHH: EVQLVESGGGLVQPGGSLRLSCAASGPTFSIYAMGWFRQAPGKEREFVAGIRWSDVYTQYADSVKGRFTISADNSKNTAYLQMNSLKPEDTAVYYCALDIDYRDWGQGTLVTVSS
B14: variant 5-39 (Fc fusion)
VHH: EVQLVESGGGLVQPGGSLRLSCAASGVTLDLYAMGWFRQAPGKEREFVAGIRWTDAYTEYADSVKGRFTISADNSKNTAYLQMNSLKPEDTAVYYCAVDIDYRDWGQGTLVTVSS
B15: variant 5-15 (Fc fusion)
VHH: EVQLVESGGGLVQPGGSLRLSCAASGFTFDGAAMGWFRQAPGKEREFVATIRWTNSTDYADSVKGRFTISADNSKNTAYLQMNSLKPEDTAVYYCARGRYGIVERWGQGTLVTVSS
B16: variant 5-60 (Fc fusion)
VHH: EVQLVESGGGLVQPGGSLRLSCAASGRSFSSHRMGWFRQAPGKEREFVAAIMWSGSHRNYADSVKGRFTISADNSKNTAYLQMNSLKPEDTAVYYCAAIAYEEGVYRWDWGQGTLVTVSS
B17: variant 5-13 (Fc fusion)
VHH: EVQLVESGGGLVQPGGSLRLSCAASGFTFDYYTMGWFRQAPGKEREFVAAIRSSGGLFYADSVKGRFTISADNSKNTAYLQMNSLKPEDTAVYYCAAYLDGYSGSWGQGTLVTVSS
B18: variant 5-63 (Fc fusion)
VHH: EVQLVESGGGLVQPGGSLRLSCAASGFSLDYYDMGWFRQAPGKEREFVAALGWSGGSTDYADSVKGRFTISADNSKNTAYLQMNSLKPEDTAVYYCAAGNGGRYGIVERWGQGTLVTVSS
B19: variant 5-47 (Fc fusion)
VHH: EVQLVESGGGLVQPGGSLRLSCAASGFTFGSYDMGWFRQAPGKEREFVTAINWSGARTAYADSVKGRFTISADNSKNTAYLQMNSLKPEDTAVYYCAARSVYSYEYNWGQGTLVTVSS
B20: variant 5-27 (Fc fusion)
VHH: EVQLVESGGGLVQPGGSLRLSCAASGRANSINWMGWFRQAPGKEREFVATITPGGNTNYADSVKGRFTISADNSKNTAYLQMNSLKPEDTAVYYCAAAAGSTWYGTLYEYDWGQGTLVTVSS
B21: variant 5-51 (Fc fusion)
VHH: EVQLVESGGGLVQPGGSLRLSCAASGRPNSINWMGWFRQAPGKERQFVATITPGGNTNYADSVKGRFTISADNSKNTAYLLMNSLKPEDTAVYYCAAAAGTTWYGTLYEYDWGQGTLVTVSS
B22: variant 5-68 (Fc fusion)
VHH: EVQLVESGGGLVQPGGSLRLSCAASGFTFDHYTMGWFRQAPGKEREFVAAISGSENVTSYADSVKGRFTISADNSKNTAYLQMNSLKPEDTAVYYCAAEPYIPVRTMRHMTFLTWGQGTLVTVSS
B23: variant 5-49 (Fc fusion)
VHH: EVQLVESGGGLVQPGGSLRLSCAASGRTSTVNGMGWFRQAPGKEREFVASISQSGAATAYADSVKGRFTISADNSKNTAYLQMNSLKPEDTAVYYCAADRTYSYSSTGYYWGQGTLVTVSS
B24: variant 5-56 (Fc fusion)
VHH: EVQLVESGGGLVQPGGSLRLSCAASGRTFSSNMGWFRQAPGKEREFVARIFGGDRTLYADSVKGRFTISADNSKNTAYLQMNSLKPEDTAVYYCADINGDWGQGTLVTVSS
B25: variant 5-23 (Fc fusion)
VHH: EVQLVESGGGLVQPGGSLRLSCAASGSIFSIDVMGWFRQAPGKEREFVAAISWSGESTLYADSVKGRFTISADNSKNTAYLQMNSLKPEDTAVYYCAAFDGYSGSDWGQGTLVTVSS
B26: variant 5-3 (Fc fusion)
VHH: EVQLVESGGGLVQPGGSLRLSCAASGSIFSIDVMGWFRQAPGKEREFVAGISWSGDSTLYADSVKGRFTISADNSKNTAYLQMNSLKPEDTAVYYCAAFDGYTGSDWGQGTLVTVSS
B27: variant 6-4 (Fc fusion)
VHH: EVQLVESGGGLVQPGGSLRLSCAASGFTRDYYTMGWFRQAPGKEREFVAAISRSGSLTSYADSVKGRFTISADNSKNTAYLQMNSLKPEDTAVYYCANLAYYDSSGYYDYWGQGTLVTVSS
B28: variant 5-67 (Fc fusion)
VHH: EVQLVESGGGLVQPGGSLRLSCAASGFNVNDYAMGWFRQAPGKEREFVAGITSSVGVTNYADSVKGRFTISADNSKNTAYLQMNSLKPEDTAVYYCAADIFFVNWGRGTLVTVSS
B29: variant 5-64 (Fc fusion)
VHH: EVQLVESGGGLVQPGGSLRLSCAASGTSISNRVMGWFRQAPGKERELVARIYTGGDTLYADSVKGRFTISADNSKNTAYLQMNSLKPEDTAVYYCAARKIYRSLSYYGDYDWGQGTLVTVSS
B30: variant 5-22 (Fc fusion)
VHH: EVQLVESGGGLVQPGGSLRLSCAASGFTFNVFAMGWFRQAPGKEREFVAAINWSDSRTDYADSVKGRFTISADNSKNTAYLQMNSLKPEDTAVYYCASGSDNRARELSRYEYVWGQGTLVTVSS
B31: variant 5-16 (Fc fusion)
VHH: EVQLVESGGGLVQPGGSLRLSCAASGRTHSIYPMGWFRQAPGKERELVAAIHSGGATVYADSVKGRFTISADNSKNTAYLQMNSLKPEDTAVYYCAARRWIPPGPIWGQGTLVTVSS
B32: variant 5-42 (Fc fusion)
VHH: EVQLVESGGGLVQPGGSLRLSCAASGFTPDDYAMGWFRQAPGKEREFVASIGYSGRSNSYNYYADSVKGRFTISADNSKNTAYLQMNSLKPEDTAVYYCAIAHGSSTYNWGQGTLVTVSS
B33: variant 5-21 (Fc fusion)
VHH: EVQLVESGGGLVQPGGSLRLSCAASGGTFTTYHMGWFRQAPGKEREFVAHISTGGATNYADSVKGRFTISADNSKNTAYLQMNSLKPEDTAVYYCATFPAIVTDSDYDLGNDWGQGTLVTVSS
B34: variant 5-29 (Fc fusion)
VHH: EVQLVESGGGLVQPGGSLRLSCAASGFTFDDYPMGWFRQAPGKEREGVASVLRGGYTWYADSVKGRFTISADNSKNTAYLQMNSLKPEDTAVYYCAKDWATGLAWGQGTLVTVSS
B35: variant 5-32 (Fc fusion)
VHH: EVQLVESGGGLVQPGGSLRLSCAASGFTPDNYAMGWFRQAPGKEREFVAALGWSGVTTYHYYADSVKGRFTISADNSKNTAYLQMNSLKPEDTAVYYCASDESDAANWGQGTLVTVSS

target: T1, Acro SARS-CoV-2 (COVID-19) S1 protein (SARS-CoV-2, UniProt P0DTC2 16-685); assay: SPR
T1 construct: also called SARS-CoV-2 S1

Compared with B1, B2 is 3.2-fold lower in Kd: 113 nM for the first, 35.8 nM for the second.

Compared with B3, B4 is 1800-fold lower in Kd: 21800 nM for the first, 12.4 nM for the second. The second binds more tightly here.

First: B5
Second: B6
The Kd of the first is 2.1-fold lower: 11.8 nM for the first, 24.6 nM for the second. The first binds more tightly here.

Going from B7 to B8, the Kd falls from 99 nM to 60.5 nM (1.6-fold). The second binds more tightly here.

First: B9
Second: B10
The Kd of the first is 12-fold higher: 353 nM for the first, 29.9 nM for the second.

Going from B11 to B12, the Kd falls from 63.5 nM to 40 nM (1.6-fold). The second binds more tightly here.

First: B13
Second: B14
The Kd of the first is 31-fold higher: 3630 nM for the first, 118 nM for the second. The second binds more tightly here.

First: B15
Second: B16
The Kd of the first is 3.3-fold higher: 96.2 nM for the first, 29.4 nM for the second.

Compared with B17, B18 is 3.6-fold lower in Kd: 37.5 nM for the first, 10.5 nM for the second.

Going from B19 to B20, the Kd rises from 27.7 nM to 92.9 nM (3.4-fold). The first binds more tightly here.

First: B21
Second: B22
The Kd of the first is 4.4-fold lower: 25.5 nM for the first, 111 nM for the second. The first binds more tightly here.

B23 and B24 are within 1.5-fold of each other in Kd: 74.5 nM for the first, 54.3 nM for the second.

B25 and B26 are within 1.5-fold of each other in Kd: 84.8 nM for the first, 64.6 nM for the second.

First: B27
Second: B28
The Kd of the first is 2.1-fold higher: 45.8 nM for the first, 22.1 nM for the second. The second binds more tightly here.

Going from B29 to B30, the Kd falls from 346 nM to 109 nM (3.2-fold).

Compared with B31, B32 is 2.3-fold higher in Kd: 50.2 nM for the first, 116 nM for the second.

First: B33
Second: B34
The Kd of the first is 25-fold higher: 1070 nM for the first, 42.4 nM for the second.

In the case of B35, the Kd is reported as 22.4 nM.
